Experiments:
[1] = target: T1, ALKBH2 (Homo sapiens, UniProt Q6NS38 1-261); assay: stopped-flow FRET; Fe(II), 2OG; initial complex k1/k-1; 50 mM HEPES-KOH pH 7.5, 50 mM KCl, 10 mM MgCl2, 25 °C (titration, 1 uM enzyme per legend); 2 mM EDTA for apo; stopped-flow buffer not printed in the material; conditions: protein: recombinant; (Ni-chelating column); label: 5'-FAM and 3'-BHQ1 on strand 1; blunt
T1 sequence: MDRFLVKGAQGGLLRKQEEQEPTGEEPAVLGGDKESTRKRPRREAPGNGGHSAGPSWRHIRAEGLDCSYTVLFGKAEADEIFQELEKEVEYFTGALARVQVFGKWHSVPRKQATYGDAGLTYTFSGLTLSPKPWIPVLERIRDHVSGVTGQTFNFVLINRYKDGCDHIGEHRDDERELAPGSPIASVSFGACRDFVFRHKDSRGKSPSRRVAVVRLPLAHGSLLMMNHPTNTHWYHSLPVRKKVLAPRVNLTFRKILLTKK

[2] = target: T1, ALKBH2; assay: stopped-flow fluorescence (FRET/εA); Fe(II), 2OG; overall KaSF (Eq. 1); 50 mM HEPES-KOH pH 7.5, 50 mM KCl, 10 mM MgCl2, 25 °C (titration, 1 uM enzyme per legend); 2 mM EDTA for apo; stopped-flow buffer not printed in the material; conditions: protein: recombinant; (Ni-chelating column); label: 5'-FAM and 3'-BHQ1 on strand 1; blunt
[3] = target: T1, ALKBH2; assay: Trp fluorescence titration; Fe(II)/2OG complex per Figure 2 legend (text says ALKBH2); 50 mM HEPES-KOH pH 7.5, 50 mM KCl, 10 mM MgCl2, 25 °C (titration, 1 uM enzyme per legend); 2 mM EDTA for apo; stopped-flow buffer not printed in the material; conditions: protein: recombinant; (Ni-chelating column); blunt
[4] = target: T1, ALKBH2; assay: stopped-flow εA fluorescence; Fe(II), 2OG; enzyme-product complex after εA repair; 50 mM HEPES-KOH pH 7.5, 50 mM KCl, 10 mM MgCl2, 25 °C (titration, 1 uM enzyme per legend); 2 mM EDTA for apo; stopped-flow buffer not printed in the material; conditions: protein: recombinant; (Ni-chelating column); blunt
[5] = target: T1, ALKBH2; assay: stopped-flow FRET; Fe(II), 2OG; enzyme-product complex after εA repair; 50 mM HEPES-KOH pH 7.5, 50 mM KCl, 10 mM MgCl2, 25 °C (titration, 1 uM enzyme per legend); 2 mM EDTA for apo; stopped-flow buffer not printed in the material; conditions: protein: recombinant; (Ni-chelating column); label: 5'-FAM and 3'-BHQ1 on strand 1; blunt
[6] = target: T1, ALKBH2; assay: stopped-flow FRET; Fe(II), 2OG; enzyme-product complex after m1A repair; 50 mM HEPES-KOH pH 7.5, 50 mM KCl, 10 mM MgCl2, 25 °C (titration, 1 uM enzyme per legend); 2 mM EDTA for apo; stopped-flow buffer not printed in the material; conditions: protein: recombinant; (Ni-chelating column); label: 5'-FAM and 3'-BHQ1 on strand 1; blunt
[7] = target: T1, ALKBH2; assay: stopped-flow FRET; Fe(II), 2OG; overall KaSF (Eq. 1); 50 mM HEPES-KOH pH 7.5, 50 mM KCl, 10 mM MgCl2, 25 °C (titration, 1 uM enzyme per legend); 2 mM EDTA for apo; stopped-flow buffer not printed in the material; conditions: protein: recombinant; (Ni-chelating column); label: 5'-FAM and 3'-BHQ1 on strand 1; blunt
[8] = target: T1, ALKBH2; assay: stopped-flow FRET; Fe(II), 2OG; overall KaSF (Eq. 1); Table 2 rates give about 2.3e5; 50 mM HEPES-KOH pH 7.5, 50 mM KCl, 10 mM MgCl2, 25 °C (titration, 1 uM enzyme per legend); 2 mM EDTA for apo; stopped-flow buffer not printed in the material; conditions: protein: recombinant; (Ni-chelating column); label: 5'-FAM and 3'-BHQ1 on strand 1; blunt

B1: εA_FRET (dsDNA)
DNA 1: ACAGGATCCGGCATA
DNA 2: TATGCCGGATCCTGT
modifications: 1,N6-ethenoadenine at position 6 of strand 1
Ka [1]: 860000 M⁻¹ | Ka [2]: 1.9e+06 M⁻¹

B2: undamaged 15 nt duplex (A instead of m1A); also product A of m1A or εA repair (dsDNA)
DNA 1: ACAGGATCCGGCATA
DNA 2: TATGCCGGATCCTGT
Kd [3]: 7.8 ± 1.2 µM | Kd [4]: 2.2 ± 0.1 µM

B3: repaired product of m1A_FRET or εA_FRET (dsDNA)
DNA 1: ACAGGATCCGGCATA
DNA 2: TATGCCGGATCCTGT
Kd [5]: 0.4 ± 0.01 µM | Kd [6]: 1.4 ± 0.2 µM

B4: m1A_FRET (dsDNA)
DNA 1: ACAGGATCCGGCATA
DNA 2: TATGCCGGATCCTGT
modifications: N1-methyladenine at position 6 of strand 1
Ka [7]: 600000 M⁻¹

B5: m3C_FRET (dsDNA)
DNA 1: ACAGGATCCGGCATA
DNA 2: TATGCCGGATCCTGT
modifications: N3-methylcytosine at position 9 of strand 1
Ka [8]: 460000 M⁻¹ | Ka [1]: 230000 M⁻¹
